In a protein production outcome set (Wang et al. 2014) one finds protein production data, which are given here for 16 sequences.
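Also: failed if final PepcDB status was selected cloned or expressed and not failed if soluble or beyond.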

The nature of this series: label from the status in PepcDB records.
On to “MVSVTFEPVGKKVEDEPDTILEIARRNGVLIRSDCGGKGVCGKCKVVVVDYRGSLSDITDHERKHLIEEEISKGYRLACQARVEEGRATIFIPPESRLERRKVAGLTIEKEVELNPAVRKVYAEIQPPSIEDQLPDYDRLTRALGDFSLDLETLSEMPKLLREAEWRVTATFWNGRLIDLEKGDVSDRCYGVAVDVGSSKIICHLVDLKSGETIATGYSDNPQVAYGEDIVSRITYASKSAENRKRLQTVVVETVNQIIAELCNESGVDLRHVYEVMIVGNSVMHHLFFGIEPRFIGVSPFTPAVRRGVSFPAEDVGLRINRKGYVSSLPLVAGFVGADAVANIAITGIHKAEEISMVIDIGTNTEIVIGNREKLGVCSAPSGPAFEGAHITFGMKAISGAIDSVRIERDEVIYTTIDNAKAKGLCGTGLIDLIAELYRNGIINRNGKFVKDHSRIIVDGVPKFVVAKAEETEFGKPITVSEKDINELLMAKGAIKSGWMILSERLGIEPDKIERIYLAGSFGRHINVENAKVIGLLPDIPSEKITFAGDTAVGGAKMALKSVRVRDEMEDVVSRLNYVELSVEKNFYSVFVRAIPI”, for which the protein production result is listed as “not failed”. In the case of “MVSYDRHINHVRLFVDGILDSSFLTEGITKTNDSPIYIGGAPYSVDSCDFPFLLDELKIYNLSIGTDQIQSEASASLSGIEPSFIYFGCFHCDMNTAILSCPNNYHLCNKMELYIGVYNVLRKFSLDVNNIILPYSSESNLGIGICCTDI”, the protein production result is given as “failed”. For the sequence “MVTGMFSLGRTYLFRVPEGEELLTYIKNFCKKEGIETAIINGIGTLKNPKIGYFLEEKKEYKVIPLKGSYELISLIGNVSLKDGEPFVHAHVSLGNEEGIVFGGHLVEGEVFVAEIFLQELKGEKIERKPTKYGLALWEELKLLEHHHHHH”, the protein production entry was “not failed”. To “MVTLLVLRMISAITRKTPVKTLSKRSKTFNETAGGEGGGGAIKLITINVHIRYSFTMITISQYFHLVDELRNCTRKVWSTYPKELIELLRDSMVTH” belongs “failed”; to “MVVAVYPGTFDPLTRGHEDLVRRASSIFDTLVVGVADSRAKKPFFSLEERLKIANEVLGHYPNVKVMGFTGLLKDFVRANDARVIVRGLRAVSDFEYEFQMAGMNRYLLPDVETMFMTPSDQYQFISGTIVREIAQLGGDVSKFVFPSVEKWLTEKVAAMAQGPSA”, “not failed”; to “MVVETIERSCEGSKRRHVNGGDIAVPCSGEECSNGDINVAPGVSAKRARVSREMTFEDIYGADALLNDDDDEDDDCDWEPVQAPMEFVKWCCVNCTMSNPGDMVHCCICGEHKESGILRHGYLASPFFKDTGLIEVEEKYGGSSSATSSTAVGFDERMLLHSEFEVKAQPHPERPDRLRAIAASLATAGVFPGRCLPINAREITKQELQMVHTSEHVDAVDTTSQLLYSYFTSDTYANEYSARAARLAAGLCADLATDIFTGRVKNGFALVRPPGHHAGVRHAMGFCLHNNAAVAALVAQAAGAKKVLIVDWDVHHGNGTQEIFEQNKSVLYISLHRHEGGNFYPGTGAADEVGSNGGEGYCVNVPWSCGGVGDKDYIFAFQHVVLPIASAFSPDFVIISAGFDAARGDPLGCCDVTPAGYSRMTQMLGDLCGGKMLVILEGGYNLRSISASATAVIKVLLGENPENELPIATTPSVAGLQTVLDVLNIQLEFWPSLAISYSKLLSELEARLIENKSEKSDEKEGCSGSDMVEMGTKEAFVQLSLGSYDFKIKVILESILPNPS”, “failed”. As to “MVVHGGAAYIRAMDHLPVDPARYGAFLVAMFVMAITPGPANLFAIATGMEKGKGAALAGVAGMNCATLIWFIGSALGLGALIIAFPQAFHLLALAGAAYLVWLGLKSLWAGWKNAESHAVAAVRGGKSAFVDGFAVQIANPKALLFFTAVLPPFLDVDRPLVPQLLMFACATIGMDLISMSAYGVGGAALSDRMNEPGFRRGFAILVGVLLITAAGLIVSRG”, the protein production entry is reported as “failed”.

As for “MVVKASGGSSVARPQLYQTVPVSTIIQAEQQDRFLNRGELDELAVYLRSGAKRLEIATTLTRNADIIVSRAANRIFVGGSPMAFLSRPQTEEAPQFTTGARGEAIDIKEAMKLGTATYVDTRGGFLEGLRSIFSASSGGAPVGFKPINIARYGPARMEKSLRDLDWFLRYTTYAIVAGDPNILAVNTRGLREIIEAACSSDATIAALQEMRRAALSYFEKDAEAKGIVETYFDVLINEFIAPAPSDKVRQRNSTDLQGLQLPQIYFNAAERRPKFVMKPGLSAAEKNEVVKAAYRQIFERDISRAYGLGISDLESKVKNGSISMKEFIRQLAKSPLYRKNFYEPYINSRALELAFRHILGRGPSSREEVQTYFAIISKGGLPALVDALVDSKEYSDYFGEETVPYLRGLGQEAQECRNWGAQQDLFKYSAPFRKVPQFITTFAAQDQPLPDQHPYGSGNDPLEIQFGAIFPKEKKNPSARPQPFNKDTRRILIARGPGINNQVSNPGARGLTPGTLGPKVFKLDQLPSINARIGKRSIATGTDSVKFAESSTQRVIRAAYLQVFGRDVYEGQRQKVAEIKLENGEISVREFVRILAKSNLFRSLYWTPLYVTKAIEYIHRRLLGRPTYGRQEMNAYFDIASKKGLYGLVDAIIDSQEYSEAFGEDTVPYERYITPQGLALRSLRVGTIGETGVPPEKEETPRFVELGAVTELRTEPAIQFRANQGVSKRREQTKVFKLTDLNDKQNLQLVIQAAYRQVFERDVAPYIVRDEFTALESKLSNGEITLKEFIEALGCSELYQKEFYTPYPNTKVIELGTKHFLGRAPLDQAEIRRYNQILATQGLKAFVQALVSSAEYAQAFGEDTVPYRRFPTLPAANFPNTEKLHNQLTKQSDAIVVPSFAPVKPRLDNTKLPLLSRAIAEQEAKARQADPSKPRFIELGRSFRNGDGQSVEVGVGTTRRRPARIFRMTVGAPSAEVELVINAIYCQVMDVFSGQVPSQFRRPDLESRLRNGEITVREFVRTLASSEIYRNRFYTPYPNTKVIEFLFRHLLGRAPATQAEIRQYNKILADQGLKTAVETMVNSPEYSRYFGEDVVPYKRFPTLPAGNYIGSVKADADLVKQSWSSLSPSLVGIQPSHRD”, the protein production result is on record as “failed”.

As for “MVVLKKMIGLVVVLSVLLARDNPFEPEINSKNLQGGFNGIYDSYFKEIHVDLPTSARILKQITLTYQDIDGSIHSKVVGIDKGIDWHYPLKLSQHTLDPAAFEKRYQIQDFDFLMASNTMILRSPYKILRSFVLVNPYRIVLDTQKGPLDIYQNMDLNQKFFSHIKVGTHKDYYRITLILDGKYRYLLEEKNGAYELKLK”, the protein production entry is “failed”. To “MVVNKRLILILLFILNTAKSDELSWKGNDFTLYARQMPLAEVLHLLSENYDTAITISPLITATFSGKIPPGPPVDILNNLAAQYDLLTWFDGSMLYVYPASLLKHQVITFNILSTGRFIHYLRSQNILSSPGCEVKEITGTKAVEVSGVPSCLTRISQLASVLDNALIKRKDSAVSVSIYTLKYATAMDTQYQYRDQSVVVPGVVSVLREMSKTSVPTSSTNNGSPATQALPMFAADPRQNAVIVRDYAANMAGYRKLITELDQRQQMIEISVKIIDVNAGDINQLGIDWGTAVSLGGKKIAFNTGLNDGGASGFSTVISDTSNFMVRLNALEKSSQAYVLSQPSVVTLNNIQAVLDKNITFYTKLQGEKVAKLESITTGSLLRVTPRLLNDNGTQKIMLNLNIQDGQQSDTQSETDPLPEVQNSEIASQATLLAGQSLLLGGFKQGKQIHSQNKIPLLGDIPVVGHLFRNDTTQVHSVIRLFLIKASVVNNGISHGLEHHHHHH” belongs “not failed”. To “MVVRQIRALLSSLLWAWRRARLQGRSAFQLVRACLREGAKGPRHFARRMAAYASGGSASPPPVSLDAYESWHSALPQLEVPADSGMISVIIPVCNTPELFLREAIESVRTQTYQNWEICIHDDASNEPHVGRILAEFKKRIPNLRVTRSETRSGIAATTNAALASARGRWVTFLDHDDVLDRNALAAVVDCHIKTGSAVVYTDHDMLGEDGRLRNPYFKPDWNYDLFLAQMYLGHLVSFEHDLIKRVGLTRSECDGSQDYDLVLRCVAAGAKVGHVPRVLYHWRMHAGSTAANADSKPYAHDSGKRAIQYHVDAVYPGAQVEDGPHLFCYDVRYPYAQHAPKASIIIPTRDGLDLLRPCIESIQGRTDYTNFEIIVVDNGSKDPATLEWLDAMSNEPWFRVLQADVPFNWSALNNLAAASAEGEVLVFLNNDTEVASADWLQRLVENALRPDVGACGALLLYADGSIQHAGVVVGMGGWADHVFKGQQPIHHQHLFVSPILRREVLAVTGACVAISRANFDAIGGFDESFVVCGSDVELCLRAMANGKRTVYVPEAILIHHESKTRDPRVIPESDFVRSAQAYSPYRESGDPFYSPNLDYMSPSPALRGAQADA” belongs “failed”; to “MVVSKMNKDAQMRAAINQKLIETGERERLKELLRAKLIECGWKDQLKAHCKEVIKEKGLEHVTVDDLVAEITPKGRALVPDSVKKELLQRIRTFLAQHASL”, “failed”; to “MVVSLCSPGKCRKGTIVSRASLRANEGRRIERSTIAPSDLPPFRSRVSQPELPVERADHDADSVADGGWQATLCALEALAGGVDEAAGTGDGRRLLWALTLDADGVVGTIEPLEQTHGARGWSKPRPVPLARVAEDDTLPQWDVRVARAIRRDASRNRRHVLDRAAAVVALVGHPAVVLSHAPTVPMEVVESAPSLEAVREGDRYVLRIVPPLREALAMEDFLPAAARQEAESLRQITVLQDGPRRLRVVRFTPAQQGAAKLIAGGLSVPADAQARLDSTLRALAGHFQIHADSSGEARERDPESRLRAEVAPVGRGISLRLVVTPLGVLGPRLAPGHGRAQLMATIGGETHVTYRDLDAEHAHVAEVFEALPFLVQQAPAGGEHTWTLDDPEDALTAIEVLPGLAGVIDLEWPRGRELRVLPADIAQLAVSVETGSEWFKLVGELRVAEGLVISLEKLVAWAHGHAGRFMPMAHGVYVALTRQLRDRLRDLAGVGDGVRDGIRVPLVAAPWLDDVLAGAGIDPDAHFRTRVKQLRAARGHDAPVPPTLVAELRPYQLEGFRWMMSLAEAGFGACLADDMGLGKTLQSLAVLLARAAGGPALVVAPTSVCGNWATEARRFAPALRVHVYADGDREAIVGQAAAHDLVIVSYNLLQQARKAFCDRHWHTVVADEAQSFKNPSSRRAQAMFALPADCRIALSGTPVENRLAELWAVMRFCVPGLLGSLARFNEHFANPIERSGARDPRQRLRRMIAPFVLRRTKAQVLDELPPRTELVIRVTPEPTEAAHYEALRRQALSEAERALLRPRKDKKAPAAMTEPEARIHVLAQLMRMRRAACDPRLVTPDVGQPGAKVRAFAELAATLAANGHKTLVFSQFVDFLQMLRQALVDAGLAWQYLDGATPAGERTRRVAAFQAGEGDVFLISLKAGGFGLNLTAADYIVIADPWWNPAAEDQAMGRAHRIGQQRPVTVYRLIAAGTIEERIVDLHQGKRALADGVLDAMDGEAIGRDVPLPDVDELVGLLRR”, “failed”.

In the case of “MVVTPLIVLLVSVLGYANLNSTELGKLKLNRLVPSRLAITLFISGTVILFGAVFATFLLLLLWGLITLVVSGSLSSAWVAMQTLTGSPGGVEPDKSSVLLLFTIGLVISFLSVTKFQSKADANWKQNNSKFLIHKLVDDELELFLLRALEMDDFIPHNGDESPDKRMLVRVVLSNRKVYIGNLIRCDITRGVCSNIVLVPMHSGYQDESTLELQLTEHYEKHYSAELSSDATELQIKDFLNQYSLTIPVHHLVTASLFDLTAYQKFLTEKLNSM”, the protein production result is listed as “failed”.

Take “MVVVTGREPDSRRQDGAMSSSDAEDDFLEPATPTATQAGHALPLLPQEFPEVVPLNIGGAHFTTRLSTLRCYEDTMLAAMFSGRHYIPTDSEGRYFIDRDGTHFGDVLNFLRSGDLPPRERVRAVYKEAQYYAIGPLLEQLENMQPLKGEKVRQAFLGLMPYYKDHLERIVEIARLRAVQRKARFAKLKVCVFKEEMPITPYECPLLNSLRFERSESDGQLFEHHCEVDVSFGPWEAVADVYDLLHCLVTDLSAQGLTVDHQCIGVCDKHLVNHYYCKRPIYEFKITW”: the protein production entry is recorded as “not failed”. On to “MVWDRATPFVIDLNVGAEDIDGLGHANNAVYVSWLERCAWRHSQFLGLDLTEYQRLDRAMAVVRHEIDYLASAYESDELQLATWITDWDRRLKMTRCFQLKRPADNLTLLRAQTTFVCIELSSGRPKRMPAEFIEGYGAAIPLEHHHHHH”, for which the protein production result is on record as “failed”.
